According to publication PMC9482650, “Quantitative fragmentomics allow affinity mapping of interactomes” (Nature Communications, 2022):

Legend:
Assay in all cases: holdup assay
Set-up in all cases: key: below the threshold = too weak to quantify, mostly under pKd 3.1 to 4
[1] = molecular target: PTPN3, P26045
[2] = molecular target: NHERF4_4, Q86UT5
[3] = molecular target: T1, PDZD2_2, O15018
T1 sequence (O15018 329-429, limits assumed, looked up): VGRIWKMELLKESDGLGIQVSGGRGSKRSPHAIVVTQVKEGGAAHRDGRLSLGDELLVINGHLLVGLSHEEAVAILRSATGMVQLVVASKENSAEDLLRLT

[4] = molecular target: T2, ARHGEF11, O15085
T2 sequence (O15085 42-136, limits assumed, looked up): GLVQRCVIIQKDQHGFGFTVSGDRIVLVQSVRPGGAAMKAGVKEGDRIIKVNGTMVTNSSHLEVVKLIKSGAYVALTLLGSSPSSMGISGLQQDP

[5] = molecular target: TJP2_1, Q9UDY2
[6] = molecular target: MAGI3_2, Q5TCQ9
[7] = molecular target: T3, SYNJ2BP, P57105
T3 sequence (P57105 8-110, limits assumed, looked up): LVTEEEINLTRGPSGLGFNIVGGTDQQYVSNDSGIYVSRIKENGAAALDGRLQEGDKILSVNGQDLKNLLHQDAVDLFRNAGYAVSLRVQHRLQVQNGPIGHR

[8] = molecular target: T4, DFNB31_1, Q9P202
T4 sequence (Q9P202 135-233, limits assumed, looked up): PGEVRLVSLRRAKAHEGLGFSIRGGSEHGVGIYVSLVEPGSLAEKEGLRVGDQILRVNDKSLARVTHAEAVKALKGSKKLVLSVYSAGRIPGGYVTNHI

[9] = molecular target: GRID2IP_2, A4D2P6
[10] = molecular target: GRIP2_4, Q9C0E4
[11] = molecular target: PARD3_3, Q8TEW0
[12] = molecular target: MAGI1_1, Q96QZ7
[13] = molecular target: SNX27, Q96L92
[14] = molecular target: MAST2, Q6P0Q8
[15] = molecular target: T5, GRIP1_4, Q9Y3R0
T5 sequence (Q9Y3R0 467-571, limits assumed, looked up): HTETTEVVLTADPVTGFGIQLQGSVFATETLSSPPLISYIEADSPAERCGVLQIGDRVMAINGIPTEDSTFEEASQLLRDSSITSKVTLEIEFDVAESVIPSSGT

[16] = molecular target: T6, DLG3_1, Q92796
T6 sequence (Q92796 125-227, limits assumed, looked up): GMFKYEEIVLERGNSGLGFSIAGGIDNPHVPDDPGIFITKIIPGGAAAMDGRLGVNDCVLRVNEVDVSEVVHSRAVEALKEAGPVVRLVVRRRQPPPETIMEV

[17] = molecular target: GRIP2_6, Q9C0E4
[18] = molecular target: T7, LNX2_3, Q8N448
T7 sequence (Q8N448 463-564, limits assumed, looked up): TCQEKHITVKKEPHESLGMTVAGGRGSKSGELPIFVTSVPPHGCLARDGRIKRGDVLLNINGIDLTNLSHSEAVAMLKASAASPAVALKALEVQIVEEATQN

[19] = molecular target: T8, LRRC7, Q96NW7
T8 sequence (Q96NW7 1440-1537, limits assumed, looked up): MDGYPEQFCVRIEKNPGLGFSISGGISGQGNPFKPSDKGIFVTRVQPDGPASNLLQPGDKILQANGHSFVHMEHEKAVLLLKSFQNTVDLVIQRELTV

[20] = molecular target: DLG4_2, P78352
[21] = molecular target: IL16_1, Q14005
[22] = molecular target: LNX1_2, Q8TBB1
[23] = molecular target: T9, APBA3_1, O96018
T9 sequence (O96018 389-490, limits assumed, looked up): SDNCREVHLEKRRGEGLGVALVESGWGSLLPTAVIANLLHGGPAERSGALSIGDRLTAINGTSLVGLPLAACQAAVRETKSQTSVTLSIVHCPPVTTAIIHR

[24] = molecular target: T10, HTRA3, P83110
T10 sequence (P83110 354-453, limits assumed, looked up): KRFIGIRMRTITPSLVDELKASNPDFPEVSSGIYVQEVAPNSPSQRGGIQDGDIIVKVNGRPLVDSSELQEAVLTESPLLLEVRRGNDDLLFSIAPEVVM

[25] = molecular target: FRMPD3, Q5JV73
[26] = molecular target: SCRIB_1, Q14160
[27] = molecular target: IL16_4, Q14005
[28] = plain residues with an end cap or a label only (N-terminal biotin on a linker: ahx)
[29] = plain residues with an end cap or a label only (N-terminal biotin on a linker: ttds)
[30] = plain residues with an end cap or a label only (N-terminal biotin on a linker: gsgsgs; C-terminal amide)

Measured: pKd

Sequence of LNX1_2, Q8TBB1 (Q8TBB1 371-470): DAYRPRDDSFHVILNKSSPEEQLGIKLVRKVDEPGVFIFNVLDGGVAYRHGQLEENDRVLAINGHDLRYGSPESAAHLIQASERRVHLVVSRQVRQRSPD
Sequence of SCRIB_1, Q14160 (Q14160 718-814): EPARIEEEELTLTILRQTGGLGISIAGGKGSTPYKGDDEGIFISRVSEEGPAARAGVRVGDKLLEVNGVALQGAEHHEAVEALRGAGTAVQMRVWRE
Sequence of GRIP2_6, Q9C0E4 (Q9C0E4 648-740): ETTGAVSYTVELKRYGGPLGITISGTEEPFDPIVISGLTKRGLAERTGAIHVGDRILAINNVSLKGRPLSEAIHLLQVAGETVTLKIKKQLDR
Sequence of MAST2, Q6P0Q8 (Q6P0Q8 1099-1202): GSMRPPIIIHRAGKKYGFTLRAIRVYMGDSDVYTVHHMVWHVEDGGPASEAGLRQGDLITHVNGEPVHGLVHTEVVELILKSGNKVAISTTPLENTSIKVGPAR
Sequence of NHERF4_4, Q86UT5 (Q86UT5 464-550): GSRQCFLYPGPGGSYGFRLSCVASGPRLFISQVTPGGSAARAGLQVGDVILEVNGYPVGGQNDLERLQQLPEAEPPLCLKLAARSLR
Sequence of PARD3_3, Q8TEW0 (Q8TEW0 582-685): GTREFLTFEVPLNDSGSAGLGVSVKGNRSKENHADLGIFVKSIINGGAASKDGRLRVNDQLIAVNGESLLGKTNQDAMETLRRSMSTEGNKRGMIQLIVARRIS
Sequence of IL16_1, Q14005 (Q14005 210-306): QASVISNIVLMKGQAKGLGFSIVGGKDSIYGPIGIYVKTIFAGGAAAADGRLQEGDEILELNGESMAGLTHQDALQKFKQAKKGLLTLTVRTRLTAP
Sequence of TJP2_1, Q9UDY2 (Q9UDY2 24-128): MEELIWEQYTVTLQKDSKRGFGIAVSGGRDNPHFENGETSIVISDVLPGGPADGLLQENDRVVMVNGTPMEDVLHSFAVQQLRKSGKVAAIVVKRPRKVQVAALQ
Sequence of DLG4_2, P78352 (P78352 155-259): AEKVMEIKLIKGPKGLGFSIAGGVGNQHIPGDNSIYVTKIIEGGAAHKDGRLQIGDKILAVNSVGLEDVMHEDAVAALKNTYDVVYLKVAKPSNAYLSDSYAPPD
Sequence of GRID2IP_2, A4D2P6 (A4D2P6 272-370): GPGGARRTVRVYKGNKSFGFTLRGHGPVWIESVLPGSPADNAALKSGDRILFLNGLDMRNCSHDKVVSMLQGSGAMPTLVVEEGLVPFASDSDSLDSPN
Sequence of MAGI3_2, Q5TCQ9 (Q5TCQ9 398-503): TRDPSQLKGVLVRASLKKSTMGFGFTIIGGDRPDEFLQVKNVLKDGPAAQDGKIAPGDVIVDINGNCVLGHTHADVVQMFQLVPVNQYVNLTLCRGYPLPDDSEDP
Sequence of MAGI1_1, Q96QZ7 (Q96QZ7 1-106): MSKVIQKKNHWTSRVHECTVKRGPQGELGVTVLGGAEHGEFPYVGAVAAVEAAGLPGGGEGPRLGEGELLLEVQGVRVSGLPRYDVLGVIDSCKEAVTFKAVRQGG
Sequence of FRMPD3, Q5JV73 (Q5JV73 12-100): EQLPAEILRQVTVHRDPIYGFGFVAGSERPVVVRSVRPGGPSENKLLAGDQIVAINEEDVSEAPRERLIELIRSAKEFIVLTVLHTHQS
Sequence of IL16_4, Q14005 (Q14005 1229-1329): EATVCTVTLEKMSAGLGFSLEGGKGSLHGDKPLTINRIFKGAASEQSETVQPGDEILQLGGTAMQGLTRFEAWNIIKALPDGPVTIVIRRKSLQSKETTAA
Sequence of PTPN3, P26045 (P26045 505-587): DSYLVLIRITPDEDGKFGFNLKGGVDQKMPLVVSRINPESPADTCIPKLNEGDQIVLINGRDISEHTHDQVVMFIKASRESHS
Sequence of GRIP2_4, Q9C0E4 (Q9C0E4 446-548): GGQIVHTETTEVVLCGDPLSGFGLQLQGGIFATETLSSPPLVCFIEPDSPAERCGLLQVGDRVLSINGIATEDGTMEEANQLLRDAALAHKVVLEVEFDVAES

RAVEEEESRF [PSCDBP, O60759]
below the threshold: [2]; [28] | [3]; [28] | [4]; [28] | [5]; [28] | [6]; [28] | [7]; [28] | [8]; [28] | [9]; [28] | [10]; [28] | [12]; [28] | [15]; [28] | [16]; [28] | [17]; [28] | [18]; [28] | [19]; [28] | [20]; [28] | [21]; [28] | [22]; [28] | [23]; [28] | [24]; [28] | [25]; [28] | [26]; [28] | [27]; [28]
3.98: [1]; [28]
4.09: [11]; [28]
5.64: [13]; [28]
4.45: [14]; [28]

RPLPRKVSQL [DOCK4, Q8N1I0]
4.58: [14]; [29]
4.73: [1]; [29]
4.69: [6]; [29]
3.59: [7]; [29]
below the threshold: [2]; [29] | [3]; [29] | [5]; [29] | [8]; [29] | [10]; [29] | [11]; [29] | [12]; [29] | [13]; [29] | [15]; [29] | [16]; [29] | [17]; [29] | [18]; [29] | [19]; [29] | [20]; [29] | [21]; [29] | [22]; [29] | [23]; [29] | [24]; [29] | [25]; [29] | [26]; [29] | [27]; [29]
4.19: [9]; [29]
3.62: [4]; [29]

FHPLGADSQV [SLC2A1, P11166]
4.22: [3]; [29]
4.05: [13]; [29]
4.46: [7]; [29]
4.1: [1]; [29]
below the threshold: [2]; [29] | [4]; [29] | [5]; [29] | [6]; [29] | [8]; [29] | [9]; [29] | [10]; [29] | [11]; [29] | [12]; [29] | [15]; [29] | [16]; [29] | [17]; [29] | [18]; [29] | [19]; [29] | [22]; [29] | [23]; [29] | [24]; [29] | [25]; [29] | [27]; [29]
3.51: [21]; [29]
4.02: [26]; [29]
3.95: [20]; [29]
4.25: [14]; [29]

YGIVQETTFDLGGDIH [MLLT4_int, P55196]
3.88: [1]; [30]
4.59: [13]; [30]
3.84: [2]; [30]
below the threshold: [3]; [30] | [4]; [30] | [5]; [30] | [6]; [30] | [7]; [30] | [8]; [30] | [9]; [30] | [10]; [30] | [11]; [30] | [12]; [30] | [15]; [30] | [16]; [30] | [17]; [30] | [18]; [30] | [19]; [30] | [20]; [30] | [21]; [30] | [22]; [30] | [23]; [30] | [24]; [30] | [25]; [30] | [27]; [30]
4.3: [26]; [30]
4.01: [14]; [30]
